Experimental data from EP4424703A1.

Key:
[1] = biological target: human transferrin receptor-1 on human TfR-positive cells (SK-OV-3, hCMEC/D3) (human) (UniProt P02786); assay: flow cytometry on SK-OV-3 cells, 200 nM Ztaq-ABD (negative control) co-incubated with 25 µg/mL Tf-488
[2] = biological target: human transferrin receptor-1 on human TfR-positive cells (SK-OV-3, hCMEC/D3) (human) (UniProt P02786); assay: flow cytometry on SK-OV-3 cells, 600 nM Ztaq-ABD (negative control) co-incubated with 25 µg/mL Tf-488

UniProt P02786, sequence (P02786 whole entry): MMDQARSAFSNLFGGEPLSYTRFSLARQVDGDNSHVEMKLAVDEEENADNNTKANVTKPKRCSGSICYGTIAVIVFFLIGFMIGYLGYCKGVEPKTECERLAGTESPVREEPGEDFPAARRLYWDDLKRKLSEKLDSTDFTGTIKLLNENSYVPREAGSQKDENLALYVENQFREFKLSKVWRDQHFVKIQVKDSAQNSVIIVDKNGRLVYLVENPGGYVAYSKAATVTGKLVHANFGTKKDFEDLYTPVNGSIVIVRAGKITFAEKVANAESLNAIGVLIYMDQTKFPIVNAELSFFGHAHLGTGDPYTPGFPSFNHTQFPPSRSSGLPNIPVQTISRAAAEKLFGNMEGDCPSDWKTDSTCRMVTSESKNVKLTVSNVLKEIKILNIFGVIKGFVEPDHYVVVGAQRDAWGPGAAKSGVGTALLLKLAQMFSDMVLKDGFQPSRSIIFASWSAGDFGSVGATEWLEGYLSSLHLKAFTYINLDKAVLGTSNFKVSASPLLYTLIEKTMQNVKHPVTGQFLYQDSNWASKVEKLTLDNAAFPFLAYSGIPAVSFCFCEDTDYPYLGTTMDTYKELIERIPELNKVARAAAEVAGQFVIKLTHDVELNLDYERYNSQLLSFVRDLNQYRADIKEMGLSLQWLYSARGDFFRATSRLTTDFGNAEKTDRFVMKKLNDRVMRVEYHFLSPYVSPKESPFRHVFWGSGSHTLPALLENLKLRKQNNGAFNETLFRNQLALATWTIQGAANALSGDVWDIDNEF

Row | MFI 640/660 nm [1] [MFI] | MFI 640/660 nm [2] [MFI] | Substance
1 | 1.62 |  | Ztaq-ABD
2 |  | 3.69 | Ztaq-ABD (designed binder)
